Data published in US20100209436.

T1: human OPA1 splice variant 7
T1 chain: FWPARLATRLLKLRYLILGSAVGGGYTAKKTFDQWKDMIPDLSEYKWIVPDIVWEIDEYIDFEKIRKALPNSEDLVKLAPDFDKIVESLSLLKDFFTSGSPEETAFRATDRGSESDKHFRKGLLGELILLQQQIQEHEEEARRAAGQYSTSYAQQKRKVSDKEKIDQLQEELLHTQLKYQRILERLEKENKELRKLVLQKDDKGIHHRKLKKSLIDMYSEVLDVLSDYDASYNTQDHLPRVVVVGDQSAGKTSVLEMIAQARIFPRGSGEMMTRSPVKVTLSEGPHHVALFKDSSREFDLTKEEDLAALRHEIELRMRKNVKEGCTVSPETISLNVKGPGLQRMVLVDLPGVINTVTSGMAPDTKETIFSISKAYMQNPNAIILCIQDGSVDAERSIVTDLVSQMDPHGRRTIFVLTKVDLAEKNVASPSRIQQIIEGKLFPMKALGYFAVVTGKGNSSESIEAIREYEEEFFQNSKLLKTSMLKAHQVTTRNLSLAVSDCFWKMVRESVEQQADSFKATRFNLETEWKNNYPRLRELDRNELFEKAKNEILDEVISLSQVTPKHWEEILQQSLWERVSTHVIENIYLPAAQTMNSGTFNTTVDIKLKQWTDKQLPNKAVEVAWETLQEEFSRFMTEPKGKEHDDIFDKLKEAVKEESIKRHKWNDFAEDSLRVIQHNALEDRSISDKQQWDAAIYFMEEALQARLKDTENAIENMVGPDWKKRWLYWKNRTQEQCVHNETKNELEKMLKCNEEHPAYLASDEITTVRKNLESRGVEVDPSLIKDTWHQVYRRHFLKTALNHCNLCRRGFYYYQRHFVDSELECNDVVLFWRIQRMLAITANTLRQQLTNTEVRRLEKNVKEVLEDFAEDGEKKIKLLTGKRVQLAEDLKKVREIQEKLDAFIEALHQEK

T2: human OPA1 splice variant 4
T2 chain: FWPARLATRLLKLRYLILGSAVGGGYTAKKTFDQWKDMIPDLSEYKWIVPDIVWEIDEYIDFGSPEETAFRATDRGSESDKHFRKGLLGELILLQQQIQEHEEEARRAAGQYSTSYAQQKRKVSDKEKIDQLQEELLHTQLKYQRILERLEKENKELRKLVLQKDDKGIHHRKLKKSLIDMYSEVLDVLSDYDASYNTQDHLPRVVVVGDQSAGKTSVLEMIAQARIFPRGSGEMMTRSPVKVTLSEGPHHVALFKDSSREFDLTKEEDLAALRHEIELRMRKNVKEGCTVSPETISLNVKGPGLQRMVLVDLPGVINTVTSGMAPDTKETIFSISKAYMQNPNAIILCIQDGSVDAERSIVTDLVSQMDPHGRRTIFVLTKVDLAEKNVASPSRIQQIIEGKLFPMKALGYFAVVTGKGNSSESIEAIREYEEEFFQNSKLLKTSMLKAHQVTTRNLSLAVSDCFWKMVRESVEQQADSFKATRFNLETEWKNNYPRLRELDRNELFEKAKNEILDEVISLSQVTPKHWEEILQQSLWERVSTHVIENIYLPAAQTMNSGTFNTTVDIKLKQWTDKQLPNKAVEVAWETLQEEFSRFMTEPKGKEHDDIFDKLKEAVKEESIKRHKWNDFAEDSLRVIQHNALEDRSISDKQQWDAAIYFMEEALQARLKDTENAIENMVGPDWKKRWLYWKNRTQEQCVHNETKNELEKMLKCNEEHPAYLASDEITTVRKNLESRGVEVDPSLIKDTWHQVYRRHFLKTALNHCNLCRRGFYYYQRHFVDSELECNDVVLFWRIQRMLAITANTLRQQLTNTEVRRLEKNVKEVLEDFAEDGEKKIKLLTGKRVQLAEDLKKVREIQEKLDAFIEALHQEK

T3: human OPA1 splice variant 8 (A210V polymorphism)
T3 chain: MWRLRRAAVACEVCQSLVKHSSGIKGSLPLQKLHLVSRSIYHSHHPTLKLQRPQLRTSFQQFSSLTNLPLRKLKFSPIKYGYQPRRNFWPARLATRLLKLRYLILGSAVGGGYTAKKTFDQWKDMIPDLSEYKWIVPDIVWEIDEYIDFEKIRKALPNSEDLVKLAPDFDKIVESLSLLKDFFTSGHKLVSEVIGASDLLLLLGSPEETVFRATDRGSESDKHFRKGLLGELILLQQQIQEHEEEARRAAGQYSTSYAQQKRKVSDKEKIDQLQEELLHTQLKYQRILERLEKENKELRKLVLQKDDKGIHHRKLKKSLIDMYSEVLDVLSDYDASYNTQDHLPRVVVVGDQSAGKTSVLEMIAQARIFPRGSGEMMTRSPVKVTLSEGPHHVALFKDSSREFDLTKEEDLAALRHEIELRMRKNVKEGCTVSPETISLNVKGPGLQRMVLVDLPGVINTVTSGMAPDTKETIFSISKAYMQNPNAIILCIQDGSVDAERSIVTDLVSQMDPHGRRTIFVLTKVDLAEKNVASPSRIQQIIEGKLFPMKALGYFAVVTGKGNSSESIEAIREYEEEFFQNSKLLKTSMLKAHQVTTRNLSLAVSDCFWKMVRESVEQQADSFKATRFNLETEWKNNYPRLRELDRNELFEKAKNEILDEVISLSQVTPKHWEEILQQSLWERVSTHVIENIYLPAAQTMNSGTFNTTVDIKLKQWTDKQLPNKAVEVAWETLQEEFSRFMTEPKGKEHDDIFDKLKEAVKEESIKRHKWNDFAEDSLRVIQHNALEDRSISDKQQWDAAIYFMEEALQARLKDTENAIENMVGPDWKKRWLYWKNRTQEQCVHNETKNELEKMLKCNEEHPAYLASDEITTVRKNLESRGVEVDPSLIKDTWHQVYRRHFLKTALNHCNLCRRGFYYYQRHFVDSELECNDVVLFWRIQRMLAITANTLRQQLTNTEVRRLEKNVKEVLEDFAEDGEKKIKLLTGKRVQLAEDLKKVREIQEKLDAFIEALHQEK


Legend:
[1] = target: T1, human OPA1 splice variant 7
[2] = target: T2, human OPA1 splice variant 4
[3] = target: T3, human OPA1 splice variant 8 (A210V …)

Protein | OPA1 processing (western blot, yeast deletion strains) [1] | OPA1 processing (western blot, Δyta10Δyta12 yeast) [1] | OPA1 processing (western blot, Δyta10Δyta12 yeast) [2] | OPA1 processing (western blot, Δyta10Δyta12 yeast) [3]
yeast m-AAA protease (subunits Yta10 and Yta12) (protein) chain 1: MMMWQRYARGAPRSLTSLSFGKASRISTVKPVLRSRMPVHQRLQTLSGLATRNTIHRSTQIRSFHISWTRLNENRPNKEGEGKNNGNKDNNSNKEDGKDKRNEFGSLSEYFRSKEFANTMFLTIGFTIIFTLLTPSSNNSGDDSNRVLTFQDFKTKYLEKGLVSKIYVVNKFLVEAELVNTKQVVSFTIGSVDIFEEQMDQIQDLLNIPPRDRIPIKYIERSSPFTFLFPFLPTIILLGGLYFITRKINSSPPNANGGGGGGLGGMFNVGKSRAKLFNKETDIKISFKNVAGCDEAKQEIMEFVHFLKNPGKYTKLGAKIPRGAILSGPPGTGKTLLAKATAGEANVPFLSVSGSEFVEMFVGVGASRVRDLFTQARSMAPSIIFIDEIDAIGKERGKGGALGGANDEREATLNQLLVEMDGFTTSDQVVVLAGTNRPDVLDNALMRPGRFDRHIQIDSPDVNGRQQIYLVHLKRLNLDPLLTDDMNNLSGKLATLTPGFTGADIANACNEAALIAARHNDPYITIHHFEQAIERVIAGLEKKTRVLSKEEKRSVAYHEAGHAVCGWFLKYADPLLKVSIIPRGQGALGYAQYLPPDQYLISEEQFRHRMIMALGGRVSEELHFPSVTSGAHDDFKKVTQMANAMVTSLGMSPKIGYLSFDQNDGNFKVNKPFSNKTARTIDLEVKSIVDDAHRACTELLTKNLDKVDLVAKELLRKEAITREDMIRLLGPRPFKERNEAFEKYLDPKSNTEPPEAPAATN chain 2: MLLLSWSRIATKVVRRPVRFRSYYGLTHIKSLHTQYRLLNRLQENKSGNKNEDNNEDAKLNKEIPTDEEVEAIRKQVEKYIEQTKNNTIPANWKEQKRKIDESIRRLEDAVLKQESNRIQEERKEKEEENGPSKAKSNRTKEQGYFEGNNSRNIPPPPPPPPPKPPLNDPSNPVSKNVNLFQIGLTFFLLSFLLDLLNSLEEQSEITWQDFREKLLAKGYVAKLIVVNKSMVKVMLNDNGKNQADNYGRNFYYFTIGSIDSFEHKLQKAQDELDIDKDFRIPVLYVQEGNWAKAMFQILPTVLMIAGIIWLTRRSAQAAGGSRGGIFGLSRSKAKKFNTETDVKIKFKDVAGCDEAKEEIMEFVSFLKEPSRYEKMGAKIPRGAILSGPPGTGKTLLAKATAGEAGVPFYFVSGSEFVEMFVGVGAARVRDLFKTARENAPSIVFIDEIDAIGKARQKGNFSGANDERENTLNQMLVEMDGFTPADHVVVLAGTNRPDILDKALLRPGRFDRHINIDKPELEGRKAIFAVHLHHLKLAGEIFDLKNRLAALTPGFSGADIANVCNEAALIAARSDEDAVKLNHFEQAIERVIGGVERKSKLLSPEEKKVVAYHEAGHAVCGWYLKYADPLLKVSIIPRGQGALGYAQYLPGDIFLLTEQQLKDRMTMSLGGRVSEELHFPSVTSGASDDFKKVTSMATAMVTELGMSDKIGWVNYQKRDDSDLTKPFSDETGDIIDSEVYRIVQECHDRCTKLLKEKAEDVEKIAQVLLKKEVLTREDMIDLLGKRPFPERNDAFDKYLNDYETEKIRKEEEKNEKRNEPKPSTN | small isoforms did not accumulate in cells lacking the yeast m-AAA protease subunits Yta10 or Yta12 | – | – | –
murine paraplegin expressed alone (Yta10 (1-61)-paraplegin (44-781)) (protein) MMMWQRYARGAPRSLTSLSFGKASRISTVKPVLRSRMPVHQRLQTLSGLATRNTIHRSTQIAARGTPVGPAAAGGHAPQSLLLRILTPSFEGISGLLLKQHIVPNAVRLWPLSGSTLYFNTSRMKQKNKDNDKPKGKTPEDDEEEKRRKEREDQMYRERLRTLFIIALVMSLLNSLSTSGGSISWADFVNEMLAKGEVQRVQVVPESDVVEVYLHPGAVVFGRPRLALMYRMQVANIDKFEEKLRAAEDELNIESKDRIPVSYKRTGFFGNALYALGMTAVGLAILWYVFRLAGMTGREGGFSAFNQLKMARFTIVDGKTGKGVSFQDVAGMHEAKLEVREFVDYLKSPERFLQLGAKVPKGALLLGPPGCGKTLLAKAVATEAQVPFLAMAGPEFVEVIGGLGAARVRSLFKEARARAPCIVYIDEIDAVGKKRSTSMSGFSNTEEEQTLNQLLVEMDGMGTTDHVIVLASTNRADVLDNALMRPGRLDRHVFIDLPTLQERREIFEQHLKGLKLTQPSSFYSQRLAELTPGFSGADIANICNEAALHAAREGHTSVHTFNFEYAVERVIAGTAKKSKILSKEEQRVVAFHESGHALVGWLLEHTEAVMKVSIAPRTNAALGFSQMLPRDQYLFTKEQLFERMCMALGGRAAEAISFSRVTSGAQDDLRKVTRIAYSMVKQFGMAPSIGPVSFPEAQEGLMGIGRRPFSQGLQQMMDHEAKLLVAKAYRHTEKVLLDNLDKLQALANALLEKEVINYEDIEALIGPPPHGPKKMIAPQKWIDAEKERQASGEEEAPAP | – | Cleavage of OPA1 upon expression of paraplegin alone was not observed | – | –
homo-oligomeric murine Afg3l1 complex (Yta10 (1-61)-Afg3l1 (25-789)-Myc) (protein) MMMWQRYARGAPRSLTSLSFGKASRISTVKPVLRSRMPVHQRLQTLSGLATRNTIHRSTQIGGCAGSGGTVWSSVRACGIALQGHLGRCSQQLALQGKLTSFSPRLYSKPPRGFEKFFKNKKNRKSASPGNSVPPKKEPKNAGPGGDGGNRGGKGDDFPWWKRMQKGEFPWDDKDFRSLAVLGAGVAAGFLYFYFRDPGKEITWKHFVQYYLARGLVDRLEVVNKQFVRVIPVPGTTSERFVWFNIGSVDTFERNLESAQWELGIEPTNQAAVVYTTESDGSFLRSLVPTLVLVSILLYAMRRGPMGTGRGGRGGGLFSVGETTAKILKNNIDVRFADVAGCEEAKLEIMEFVNFLKNPKQYQDLGAKIPKGAMLTGPPGTGKTLLAKATAGEANVPFITVNGSEFLEMFVGVGPARVRDMFAMARKHAPCILFIDEIDAIGRKRGRGHLGGQSEQENTLNQMLVEMDGFNSSTNVVVLAGTNRPDILDPALTRPGRFDRQIYIGPPDIKGRSSIFKVHLRPLKLDGSLSKDALSRKLAALTPGFTGADISNVCNEAALIAARHLSPSVQERHFEQAIERVIGGLEKKTQVLQPSEKTTVAYHEAGHAVVGWFLEHADPLLKVSIIPRGKGLGYAQYLPREQFLYTREQLFDRMCMMLGGRVAEQLFFGQITTGAQDDLRKVTQSAYAQIVQFGMSEKLGQVSFDFPRQGETMVEKPYSEATAQLIDEEVRCLVRSAYNRTLELLTQCREQVEKVGRRLLEKEVLEKADMIELLGPRPFAEKSTYEEFVEGTGSLEEDTSLPEGLKDWNKGREEGGTERGLQESPV | – | expression of each of the murine subunits, Afg3l2 or Afg3l1, in Δyta10Δyta12 cells promoted OPA1 processing; the isoform S4 predominantly accumulated in the presence of Afg3l1 | Afg3l1 and Afg3l2 complexes mediated processing of OPA1 splice variants 4 and 8 in a similar manner | Afg3l1 and Afg3l2 complexes mediated processing of OPA1 splice variants 4 and 8 in a similar manner
